Results published in publication PMC10776578, “Epstein-Barr virus-driven B cell lymphoma mediated by a direct LMP1-TRAF6 complex” (Nature Communications, 2024).
Like-named read-outs stand apart in the source and are kept apart here.

B2: His-TRAF6_(310-522) (domain or fragment)
chain: DHQIRELTAKMETQSMYVSELKRTIRTLEDKVAEIEAQQCNGIYIWKIGNFGMHLKCQEEEKPVVIHSPGFYTGKPGYKLCMRLHLQLPTAQRCANYISLFVHTMQGEYDSHLPWPFQGTIRLTILDQSEAPVRQNHEEIMDAKPELLAFQRPTIPRNPKGFGYVTFMHLEALRQRTFIKDDTLLVRCEVSTRFDMGSLRREGFQPRSTDAGV
notes: also called His-T6; recombinant TRAF6 wild-type; source: E. coli BL21 Codon Plus RIPL, purified (Ni-NTA)
B4: GST-LMP1_(181-386) (domain or fragment)
chain: LIWMYYHGQRHSDEHHHDDSLPHPQQATDDSGHESDSNSNEGRHHLLVSGAGDGPPLCSQNLGAPGGGPDNGPQDPDNTDDNGPQDPDNTDDNGPHDPLPQDPDNTDDNGPQDPDNTDDNGPHDPLPHSPSDSAGNDGGPPQLTEEVENKGGDQGPPLMTDGGGGHSHDSGHGGGDPHLPTLLLGSSGSGGDDDDPHGPVQLSYYD
notes: also called LMP1 wild-type; LMP1 signalling domain; source: E. coli DH5α or BL21 Codon Plus RIPL, purified (glutathione Sepharose 4B)

What was measured:
[1] = target: T1, His-TRAF6_(310-522) (human, UniProt Q9Y4K3 310-522)
T1 chain: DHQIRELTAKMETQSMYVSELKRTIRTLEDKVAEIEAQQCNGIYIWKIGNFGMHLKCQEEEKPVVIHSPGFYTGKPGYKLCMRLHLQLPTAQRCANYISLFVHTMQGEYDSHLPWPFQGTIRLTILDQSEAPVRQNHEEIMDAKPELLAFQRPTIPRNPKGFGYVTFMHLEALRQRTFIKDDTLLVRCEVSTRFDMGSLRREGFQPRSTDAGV

[2] = target: T2, GST-CD40_(216-277) E235Q (human, UniProt P25942 216-277, E235Q); experiment: AlphaScreen or HTRF; AlphaScreen PPI assay: His-TRAF and GST-LMP1, GST-CD40 or GST-RANK in PBS with 0.5% BSA and 0.1% Tween-20, 1 h at RT; standard 300 nM His-TRAF and 100 nM GST protein if not indicated otherwise; for KD His-TRAF6 at different concentrations, fit one site-specific binding with hill slope; details: both partners purified
T2 construct: also called CD40 E235Q; E to Q mutation at P0 of CD40; source: E. coli DH5α or BL21 Codon Plus RIPL, purified (glutathione Sepharose 4B)
T2 sequence: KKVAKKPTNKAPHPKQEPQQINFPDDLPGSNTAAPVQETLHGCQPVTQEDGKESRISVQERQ

[3] = target: T3, GST-LMP1_(181-386) Y384D (Epstein-Barr virus, UniProt P03230 181-386, Y384D); experiment: as above; details: both partners purified
T3 construct: also called LMP1 Y384D; source: E. coli DH5α or BL21 Codon Plus RIPL, purified (glutathione Sepharose 4B)
T3 sequence: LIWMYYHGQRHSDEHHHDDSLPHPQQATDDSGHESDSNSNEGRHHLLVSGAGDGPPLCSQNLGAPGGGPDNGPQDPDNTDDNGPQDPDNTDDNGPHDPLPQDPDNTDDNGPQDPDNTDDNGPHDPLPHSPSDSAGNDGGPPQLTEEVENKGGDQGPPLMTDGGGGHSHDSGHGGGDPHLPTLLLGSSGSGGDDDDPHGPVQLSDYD

[4] = target: T4, GST-RANK_(314-355) E346Q (human, UniProt Q9Y6Q6 314-355, E346Q); experiment: as above; details: both partners purified
T4 construct: also called RANK E346Q; E to Q mutation at P0 of RANK; source: E. coli DH5α or BL21 Codon Plus RIPL, purified (glutathione Sepharose 4B)
T4 chain: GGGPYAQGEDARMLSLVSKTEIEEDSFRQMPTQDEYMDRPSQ

[5] = target: GST-CD40_(216-277) E235Q (human, UniProt P25942 216-277, E235Q)
[6] = target: B2; experiment: AlphaScreen or HTRF; AlphaScreen PPI assay: His-TRAF and GST-LMP1, GST-CD40 or GST-RANK in PBS with 0.5% BSA and 0.1% Tween-20, 1 h at RT; standard 300 nM His-TRAF and 100 nM GST protein if not indicated otherwise; for KD His-TRAF6 at different concentrations, fit one site-specific binding with hill slope; details: both partners purified
[7] = target: T5, His-TRAF6_(310-522) K469A (human, UniProt Q9Y4K3 310-522, K469A); experiment: as above; details: both partners purified
T5 construct: also called TRAF6 K469A; source: E. coli BL21 Codon Plus RIPL, purified (Ni-NTA)
T5 sequence: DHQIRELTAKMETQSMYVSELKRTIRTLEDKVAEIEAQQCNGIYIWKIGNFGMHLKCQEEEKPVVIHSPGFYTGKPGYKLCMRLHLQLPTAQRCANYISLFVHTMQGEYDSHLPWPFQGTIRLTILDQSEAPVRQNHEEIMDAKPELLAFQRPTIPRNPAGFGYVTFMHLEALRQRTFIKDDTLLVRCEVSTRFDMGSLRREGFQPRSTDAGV

[8] = target: T6, His-TRAF6_(310-522) R392A (human, UniProt Q9Y4K3 310-522, R392A); experiment: as above; details: both partners purified
T6 construct: also called TRAF6 R392A; source: E. coli BL21 Codon Plus RIPL, purified (Ni-NTA)
T6 sequence: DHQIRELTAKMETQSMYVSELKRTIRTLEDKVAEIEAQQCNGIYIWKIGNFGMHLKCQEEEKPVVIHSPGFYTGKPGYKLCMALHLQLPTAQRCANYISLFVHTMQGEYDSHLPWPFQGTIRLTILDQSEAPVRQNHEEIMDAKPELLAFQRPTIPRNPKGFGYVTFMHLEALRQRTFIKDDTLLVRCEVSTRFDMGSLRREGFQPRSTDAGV

[9] = target: B2; experiment: peptide or protein array; peptides spot-synthesised on cellulose membranes in duplicate, incubated with 10 µg per mL purified His-TRAF6 or His-TRAF2 in PBST with 5% milk powder for 4 h at RT; detection by TRAF-specific antibodies; details: both partners purified
[10] = target: B2; experiment: AlphaScreen or HTRF; AlphaScreen PPI assay in competition: GST-LMP1 or GST-CD40 with His-TRAF6 (dose-response of TRAF6 inhibitor or control peptide, 4-parameter fit) or GST-LMP1 with His-TRAF2 (30 µM peptide); details: both partners purified
[11] = target: T1, His-TRAF6_(310-522); experiment: competition with GST-CD40(216-277)
[12] = target: B4; experiment: pull-down; details: both partners purified
[13] = target: T7, TRAF6_(346-504) for NMR (human, UniProt Q9Y4K3 346-504, uniformly labeled with 15N); experiment: NMR titration; details: both partners purified
T7 construct: also called 15N-labeled TRAF6; source: E. coli Rosetta2 DE3, purified (Ni-NTA, SUMO cleavage, second Ni-NTA, SEC)
T7 sequence: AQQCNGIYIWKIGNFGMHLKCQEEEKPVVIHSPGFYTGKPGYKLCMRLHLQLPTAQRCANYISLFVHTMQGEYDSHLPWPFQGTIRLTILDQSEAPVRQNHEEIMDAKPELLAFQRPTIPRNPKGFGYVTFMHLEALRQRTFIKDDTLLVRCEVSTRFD

B1: GST-RANK_(314-355) E346Q (domain or fragment)
chain: GGGPYAQGEDARMLSLVSKTEIEEDSFRQMPTQDEYMDRPSQ
Question: B1 was tested. Which Kd [1] did it give?
Answer: 15.6 nM

Question: What does the source list for B2?
Answer: factor of reduction of affinity against wild-type CD40 [2]: 4.3 fold; fold reduction of affinity against wild-type LMP1 [3]: 1.8 fold; factor of reduction of affinity against wild-type RANK [4]: 2 fold; Kd [5]: 73.9 nM

B3: GST-CD40_(216-277) (domain or fragment)
chain: KKVAKKPTNKAPHPKQEPQEINFPDDLPGSNTAAPVQETLHGCQPVTQEDGKESRISVQERQ
notes: source: E. coli DH5α or BL21 Codon Plus RIPL, purified (glutathione Sepharose 4B)
Question: What does the source list for B3?
Answer: Kd [6]: 17.1 nM; binding result [7]: binds; binding result [8]: binds

Question: With B4 as the binder, how does the Kd [6] read?
Answer: 73.2 nM

Question: Does B4 bind [7]?
Answer: binds

B5: LMP1-derived CTAR2 peptide 8 (amino acids 371-386, 16mer) (peptide)
peptide: GDDDDPHGPVQLSYYD
notes: source: synthetic peptide, spot-synthesised on cellulose membrane
Question: Does B5 bind [9]?
Answer: binds

B6: LMP1-derived CTAR2 peptide 11 (amino acids 357-386, 30mer) (peptide)
peptide: PHLPTLLLGSSGSGGDDDDPHGPVQLSYYD
notes: as for B5
Question: Does B6 bind [9]?
Answer: binds

B7: TRAF6 inhibitor peptide DRQIKIWFQNRRMKWKK-RKIPTEDEY (peptide)
peptide: DRQIKIWFQNRRMKWKKRKIPTEDEY
notes: also called RANK-derived peptide; source: bought: Novus Biologicals NBP2-26506
Question: B7 was tested. Which IC50 [10] did it give?
Answer: 177 nM

Question: And the IC50 [11]?
Answer: 546 nM

B8: His-TRAF1_(226-416) (domain or fragment)
chain: RERILSLEQRVVELQQTLAQKDQALGKLEQSLRLMEEASFDGTFLWKITNVTRRCHESACGRTVSLFSPAFYTAKYGYKLCLRLYLNGDGTGKRTHLSLFIVIMRGEYDALLPWPFRNKVTFMLLDQNNREHAIDAFRPDLSSASFQRPQSETNVASGCPLFFPLSKLQSPKHAYVKDDTMFLKCIVETST
notes: source: E. coli BL21 Codon Plus RIPL, purified (Ni-NTA)
Question: Does B8 bind [12]?
Answer: binds

B9: His-TRAF5_(363-557) (domain or fragment)
chain: DQRLAVLEEETNKHDTHINIHKAQLSKNEERFKLLEGTCYNGKLIWKVTDYKMKKREAVDGHTVSIFSQSFYTSRCGYRLCARAYLNGDGSGRGSHLSLYFVVMRGEFDSLLQWPFRQRVTLMLLDQSGKKNIMETFKPDPNSSSFKRPDGEMNIASGCPRFVAHSVLENAKNAYIKDDTLFLKVAVDLTDLEDL
notes: as for B8
Question: Does B9 bind [12]?
Answer: binds

B10: LMP1 peptide G378PVQLSYYD (peptide)
peptide: GPVQLSYYD
notes: source: unlabeled peptide (PSL)
Question: Does B10 bind [13]?
Answer: binds
